This is an account of results in the DeepSol protein solubility set.

This series is described as follows: soluble on expression in E. coli; label from the status in PepcDB or PDB records.
“MGSDKIHHHHHHMERLPTTPHDAVFRQMLMQKEVARDFLAIHMPEDFLAICDLDSLKLESGSFVEDNLRSRYSDILYSLHTQHGPGYVYALIEHQSKSDRLMAFRLMRYAIAAMQRHLDAGHDTLPLVVPILFYHGPESPWPYSLNWHNMFVKPDMAKALYSRDFALVDLTTMPDNQLLQHRRIAMLELLQKHIRQRDLSELLDPLITLLTQDHLTDAQLSVLINYMLKAGNAAEPGALIRQLAQGAPQYKEQLMTIAEWLEEKGRTEGLQKGLQKGLEQGLAQGREAEARAIARKMLANGLEPGLIASVTGITPEELSTLSH”: the “soluble on expression in E. coli” value is given as “not soluble”.
For the sequence “MSLDLKFTDFLDPRVKSSLGEEEIVFPPYDANQLRDILQHRSDVAFKADALSDDVLPLCAAFAAQEHGDARRALDLLRTAGELAERDQAENVTEDHVRRAQDKIELDRVVEVVRTLPTQSKLVLYAILLLEDNGVHNVNTGEVYNIYKTLCDELDADVEGHHHHHH”, the “soluble on expression in E. coli” value is “soluble”.
The result for “MGSDKIHHHHHHMTLDNHHCVQLVPLFEKLAEQDLTKVEKIVEHKKIKKGEIIISPDKEPLLVIVAQGALKISQLSQSGKEQLLRIIEAGDYEGEGALLGVTNGQLYGQAMIDSTICFLRQSDFETLLTTYPSLSLQLLKLNAKKYLAAEHQAGFLALDDVEARLAHYFLNLSATSDSIYFEIPMKLKELANYIGTSPETISRKIKVFEENKIISRQGRMIKLLDKEKLEDDFA” reads “not soluble”; that for “MGSDKIHHHHHHMEYGHHARPDSKRPLDEGSPAAAGLTSKKANEALTRNRELTTVLVKNLPKSYNQNKVYKYFKHCGPIIHVDVADSLKKNFRFARIEFARYDGALAAITKTHKVVGQNEIIVSHLTECTLWMTNFPPSYTQRNIRDLLQDINVVALSIRLPSLRFNTSRRFAYIDVTSKEDARYCVEKLNGLKIEGYTLVTKVSNPLEKSKRTDSATLEGREIMIRNLSTELLDENLLRESFEGFGSIEKINIPAGQKEHSFNNCCAFMVFENKDSAERALQMNRSLLGNREISVSLADKKPFLERNEVKRLLASRNSKELETLICLFPLSDKVSPSLICQFLQEEIHINEKDIRKILLVSDFNGAIIIFRDSKFAAKMLMILNGSQFQGKVIRSGTINDMKRYYNNQQNHSMKHVKPSCINMMEKGPNLQVKKKIPDKQEQMSNDDFRKMFLGE”, “not soluble”.
On to “MGSDKIHHHHHHMNYRERIAQSITPLQGNLFRVVESQEDIATARIVDSMQEQNRLEELLESNKPPVPGTARKRHYLLTTPFRYPPLKYGSRFGRSFEPSLFYGAMSIPTALAETAFYRFVFMSHLKVPFKRPLTTLHTVFSARFRTERGVRLQSEHWQDLHHTLADPVSYRESQAVGTDMRSLQVGAFQFLSARALQAGLYALPYHPDNGVEGVNVALFNASVFRDAAPRSYQKLIAVTSPSQVSMSLSEPDGSKKVYEFSLDQFLVEGELPQPAP”, for which the “soluble on expression in E. coli” value is recorded as “not soluble”.
Turning to “MLSNMLDVNLEKMERFAAKVWRKYGKEDPLAQLSFNEYDYLKVIQSAPQAIRLTDLALALEVSKPSASNMLKRLERRGLVKRVQCQSDARSQLFELTEQAELHLASEAKVYQILAEQVAQNLSSEEAMMLDLLLGKALR”, the “soluble on expression in E. coli” value is recorded as “not soluble”.
The result for “MSSALTDLFPLPIVQAPMAGGVSVPQLAAAVCEAGGLGFLAAGYKTADGMYQEIKRLRGLTGRPFGVNVFMPQPELAESGAVEVYAHQLAGEAAWYETELGDPDGGRDDGYDAKLAVLLDDPVPVVSFHFGVPDREVIARLRRAGTLTLVTATTPEEARAVEAAGADAVIAQGVEAGGHQGTHRDSSEDDGAGIGLLSLLAQVREAVDIPVVAAGGIMRGGQIAAVLAAGADAAQLGTAFLATDESGAPGPHKRALTDPLFARTRLTRAFTGRPARSLVNRFLREHGPYAPAAYPDVHHLTSPLRKAAAKAGDAQGMALWAGQGHRMARELPAGRLVEVLAAELAEARTALSDASRENESRKGHHHHHH” reads “soluble”; that for “MSQNSLPSEVSNATIDKELYYHGLLPSEDVRQLLSNNGDFLLRSSEPEPGSPRTHILSVMFNNRLDDINSIKHFVVNFVDGKYFINDKMSFPSIQKMLGTYQRNNTEIKEGCMLVNPIRRQFWELEHDQITIHKKLGEGAFGEVSSGVMKFKKGMKTVQVAIKQVKLDKTGKAKIKDFLAEARTMRKLGHQNIIKFYGVGVLQEPLYLVMELAVNGALDSFLKKNEDLSVDKKTEMILQAAWGLEYIHGKPMLHRDIAARNCLYTDGKVKISDFGLTRNGTVYQIKPNTKSPIRWLAIETIKTMICSEKTDVWAYGVLCWEIFNNAAEPYPGMKPADVATQVANGYRMPPYPHAQAEIQTMMARCNAENPNDRPSMAEIAEILQRVTETPRPNFTAIAKKEAEELLLMNSVTTKTTARRKKSNVKLPKGMSKN”, “not soluble”; that for “MVSSLFINPFSEDAREIVRKYGSLDTIDDTRDELLEIGRRTRGQNLADNSLLPASIAELAVKRLEWYLRRQRKDFNHRDYAYLMNPEIEEYDVLAFYILAQAAGAGFMKASREARLVVESAGAMVEDRLNVFGGEREEIMAEVLYELGSEGLRWTELADLLGSGKLKLTDLILKEGRVIIDRDEFITSFQDSIRDRSPDRLYDILVGLEVRETMISRMIMQRTEEYIGMVREMSSTVEVHPLILETAERIRETVEEIMSFTGGPVKSARPGKLVQEAFPPCIRGTLDGVRSGNRNDAIVLLLTSFISYARLYPSVFRDRTPMKVSDLDPDLRITLGEILPVIYDAADRCEPPLFEDDPQEKLNITAKLGFGVHDMPELENEGESKWYTPMSCEKIKIHLPDLCRPDKLCSSISNPLTYYNRKRWKLRSSGEKEELEHHHHHH”, “not soluble”.
As for “MSLAPAQRAFSDWQVTCNNQNFCVARNTGDHNGLVMTLSRSAGAHTDAVLRIERGGLKSPDASEGEIAPRLLLDGEPLALSGDKWRISPWLLVTDDTATITAFLQMIQEGKAITLRDGNQTISLSDLKAALLFIDAQQKRVGSETAWIKKGDEPPLSVPPAPALKEVVVVNPTPTPLSLEERNDLLDYGNWRMNGLRCSLDPLRREVNVTALTDDKALMMISCEAGAYNTIDLAWIVSRKKPLASRPVRLRLPFNNGQETNELELMNATFDEKSRELVTLAKGRGLSDCGIQARWRFDGQRFRLVRYAAEPTCDNWHGPDAWPTLWITREGHHHHHH”, the entry is “soluble”; as for “MGQRGQVCQGRCMAEDQQSSQISDTVPALRRAVRILDLVAGSPRDLTAAELTRILDLPKSSAHGLLAVMTELDLLARSADGTLRIGPHSLRWANGFLSHLDIVSTFNDHLAQRHDLDPYTVTLTVREGGEVVYIGCRNSAQPLGHTFRIGMRLPAPFTATGKILLSDLGPGELRMLFSQFPQPLTSRSVAGLSQLEEELALTRARGYSIDDGQIREGMLCIGAAIRDYSGAASAGIAISLIRSEASDEKIASLGEELRTTANALSEKLGYRSQKD”, “not soluble”.
In the case of “MSLNRNNPLEVLGHVSWLWASSPLHRNWPVSLFAINVLPAIRANQYALLTRDNYPVAYCSWANLSLENEIKYLNDVTSLVAEDWTSGDRKWFIVWIAPFGDNGALYKYMRKKFPDELFRAIRVDPKTHVGKVSEFHGGKIDKQLANKIFKQYHHELITEVKNKSDFNFSLTGEGHHHHHH”, the “soluble on expression in E. coli” value is on record as “soluble”.
Turning to “AHHHHHHGSLGRLARWLRLYGYDTLYGIEDDNEILRIAEEEGRIILTRDVELYRQAQVRNLRAILITSNSFEEQVKQLMMERVEFSELFPENARCPKCNGVIRSAKKEEVKGKVPENVYNSYNEFYICTSCGQIYWPGRQWREMLKMDKKIKANKL”, the “soluble on expression in E. coli” value was “soluble”.
As for “MNKIETDTLLLPVIGESPAGDDIEYDPVYSEIREARQNDPDYMSQGEWAVSEPRRADWRKVRKLCEVTLRNKSKDLQISCWYVESLTHLYALEGMHCGLEYLAKFISQYWTTCWPSQEEGQEIRYSKLVRLDIDLSEYLKAYPLLEDKEITLSEWYKVLSFEHGASLSEAGKERLIESEGDHSVESFKRAVGKYNPRKVSEQLLQLYDLPDKIDEIESSYFFHTHEDIHHIFAKTRHIISEITELLSRFLPQETLDHSSVSQFLGKPDSRDTRTALPEEKKEFYSALTPSTDKEMSREKAIEQLEKIAIFFRQSEPTSPVPYLLERAIRWSTMTMSEWLEELLKDNDSMEQINRVLKG”, the entry is “not soluble”.
The result for “MGSEIDQNDTDSSTQEWYRLLVVEKSTTLSDFMTSKRTKMVSDFPEEREEAIEEIIEVISTFPMDFLQKDEVSLLLNYFINSIESSALTGGAVIRGVHHLILKSKNLPDNFEVSLIRVLFKEGNVQSWAQKERQLQYEILIWFLKYRLSFLKGLGPDFLATFMKSVSGERDPRCLVHMFSAFLEVSNNFTLGPFTEDMFETIACYFPVEFKPQKTDTITREYLAASCASCLVSSPSFAPFCFLFIDEKLNDDDCSDEEYEDVLNLLILAYNRFPAQKKNLSLIEPLIGGIRKIGLNPKNKGEMQKYVSQAFEAVIKLCTKSSETNSKALDGIVSSIVEDSEPFVLQAEMGLCKKALTLLRSAFKSLPDKNSRQIFNQVIAWILNLIQGDSVNAAGNRADIVQEGLEYLVEWIQLASEYKELSIETLAVFEQSIFESCSRAREFKPREAITAIYECASVYFESDCASDELISQCRSYIALALRTPIDTDSDFQSLLKLIRIYSSKNFDQVEIILADNETNSWNAMKVLPVLCAISCSQRWNLLKNKIVDELGSTISSSTEISYLICYVQMMEKCKKDPQLFHQQFEVFESVLYKTDCNEPVSVSYLMQSISLLLSEDDHQKFMNQTTTRYQSLEGSSLDNFNQKYRLAYLQNKNTNDLKTIANLKLPERTIRQLFFAICNREAENENNSEIPEQHHIAEIKAKLLRNAPNSLSAFEQFLTNISGSTESPFEYLLDFDSFDSNPDRCRYETASPLWRQRIFCQIVPIFKRKFEEPGSQKHVLVEMLPHLLTFAVPLDFQQLKKQFAMLLPVLIQTIGMEDVIPSHVTRTIPMFLTISEPLQPKDLGTVVKYLCSITRDNDSNMTNLEDALNGLNILARRQPPKSLHSEVPLVVTSINKILGHKKRLLRMMAADVKNNWEMVITK” reads “not soluble”; that for “DMNYTYTSIAAIDGNIKTFVAAPRVGYRWQYDGGRELRVFVGAMYQNVQQELSGDLKSLNLPPQLLGLVENLSPDAGFNVSQSADENWNSVLGFQYAFNKDWEILMEAGFGERETLFFSLGRRF”, “not soluble”.
Consider “MKRTIILFDINETVLNLSALKPKFKATFGDESVMATWFSMLLHSSTVCIMTSVKTDFATLAGTMLESIAARMSIKLSKAARDDILAGFANLPPHNDIKPALAQLKSAGFRTVAFSNSSLNLISTQITNAGLKEYFDDIISVEETGSFKPDPTVYKFAAKRLNQPLESLRLVATHDWDTHGALSVEMRAAYINRSGAVYHPLYRQPDIYATTMEDIVKLIIEKDD”, for which the “soluble on expression in E. coli” value was “not soluble”.
As for “MALPTIESFKKLSSEDKRQVLDHLFEPCNTLSNFVFIKVLHQQYNTYPEFINLVRKELLEFLKQSETFQSQYQGEISPVINEIISAHPRLGEPKKETLSVHSNNEQKTLNNDPEIIKKLKELNAAYEKTFPGLRYVVFVNGRSRHEIMDNMQKRIERNDINLERVEAFNAMCDIALDRANKLGIKL”, the entry is “not soluble”; as for “MLEPSHNDELPPIPGKRYFTIGEVSELCAVKPHVLRYWEQEFPQLNPVKRRGNRRYYQRLDVLMIRQIRGLLYDQGFTIGGARLRLTAGEPKDDTQQYKQMIREMIAELEDVLVMLKA”, “not soluble”.
